Assay results taken from US7238786B2, “Monoclonal antibody cPAM4” (Immunomedics, Inc., priority 2002, dated 2007).
Where a SMILES comes first, the peptide text is derived from it. Side-chain parts run from the residue outwards. The star is where a group is joined. DTPA = O=C(O)CN(CCN(CC(=O)O)CC(=O)O)CCN(CC(=O)O)CC(=O)*; X1 = NC(=S)NN=CC(=O)*

Columns and labels:
[1] = system: CaPan1 tumor; test: Pre-targeting with bsMAb and radiolabeled peptide-haptens in CaPan1 tumor-bearing mice; conditions: peptide pre-targeted with bsPAM4, 3-Hours
Experimental: Mice were sacrificed at 3 and 24 hours after the administration of peptides and the % ID/g determined for the tumor and various tissues.

[2] = system: tumors; test: Clinical studies with PAM4 MAb: targeting and dosimetry; type: in vivo, human; conditions: patients
[3] = system: Normal Adult Tissues; test: Immunoperoxidase staining of normal adult tissues with MAb PAM4; type: binding, human
Text: (§1) Normal pancreatic tissue, including ducts, ductules, acini, and islet cells, were negative for staining. A PAM4 based enzyme immunoassay with tissue homogenates as antigens generally supported the immunohistology data (Table 2). The PAM4 epitope was absent from normal pancreas and other nongastrointestinal tissues. In neoplastic tissues, PAM4 was reactive with twenty one out of twenty five ([…]) pancreatic cancers (Table 3). PAM4 reactivity appeared to correlate with the stage of tumor differentiation. […] Generally, poorly differentiated tumors represent less than 10% of all pancreatic cancers.

[4] = system: Normal Adult Tissue Homogenates; test: PAM4 based enzyme immunoassay with tissue homogenates as antigens; type: binding, human
Text: as §1

[5] = system: CaPan1; test: Biodistribution and dosimetry of radiolabeled PAM4, CaPan1 xenograft; conditions: in vivo
Experimental: Initial biodistribution studies of PAM4 were carried out in a series of four different xenografted human pancreatic tumors covering the range of expected differentiation. […] The biodistribution data were used to estimate potential radiation doses to the tumor of 12,230; 10,684; 6,835; and 15,843 cGy/mCi of injected dose to AsPc1, BxPc3, Hs766T and CaPan1, respectively. With an actual maximum tolerated dose (MTD) of 0.7 mCi, PAM4 could provide substantial rad dose to each of the xenografted tumor models. […] Potential radiation doses to the blood from PAM4 were 1.4-4.4 fold lower than from Ag8. […] Importantly, potential radiation doses to non-tumor tissues were minimal.
The biodistribution of PAM4 was compared with an anti-CEA antibody, MN14, using the CaPan1 tumor model. The concentration of PAM4 within the tumor was much greater than the MN14 at early timepoints, yielding tumor:blood ratios at day three of 12.7±2.3 for PAM4 compared to 2.7±1.9 for MN14. […] This was due to a rapid clearance of PAM4 from the tumor, such that at later timepoints similar concentrations of the two antibodies were present within the tumors. A rapid clearance of PAM4 from the tumor was also noted in the BxPc3 and Hs766T but not AsPc1 tumor models. […] Results from studies on the metabolism of PAM4, indicate that after initial binding to the tumor cell, antibody is rapidly released, possibly being catabolized or being shed as an antigen:antibody complex. This might have had unfavorable implications for the use of the antibody in patients except that the blood clearance is also very rapid.
This type of splenic targeting has been observed in the clinical application of the anti-mucin antibodies B72.3 and CC49. […] The latter would require the presence of immune complexes in the blood; however, these were not observed when specimens as early as five minutes and as late as seven days were examined by gel filtration (HPLC, GF-250 column); radiolabeled antibody eluted as native material. The former explanation seems more likely in view of the fact that the CaPan1 tumor produced large quantities of PAM4-reactive antigen, 100 to 1000-fold higher than for the other tumor cell lines examined. […] In any event, splenic targeting can be overcome by increasing the protein dose to 10 ug from the original 2 ug dose. A greater amount of the splenic entrapped antigen presumably was complexed with unlabeled PAM4 rather than radiolabeled antibody. Increasing the protein dose had no adverse effect upon targeting of PAM4 to the tumor or nontumor tissues.

[6] = system: chronic pancreatitis specimens; test: Immunohistochemistry of chronic pancreatitis specimens; type: binding, human; conditions: twelve specimens
Text: (§2) These studies have shown the PAM4 reactivity and tissue distribution (both normal and cancer) to be unlike that reported for CA19.9, DUPAN2, SPAN1, Nd2, B72.3, and the Lewis antigens. […] When compared to CA19.9, DUPAN2, and aLe^a, PAM4 appears to be more restricted in its tissue distribution and it is reactive with a higher percentage of pancreatic tumors. Moreover, it gives a greater overall intensity of reaction at equivalent concentrations and is reactive with a higher percentage of cells within the tumors. […] Although it is recognized that specificity is dependent upon the type of assay employed and the range and number of tissues examined, the ability of PAM4 to discriminate between normal and neoplastic pancreatic tissue, its ability to react with a large percentage of the cancer specimens, as well as the high intensity of the reactions, were important rationales for pursuing developmental studies of clinical application.

[7] = system: Pancreatic Tumors; test: Immunohistochemical reactivity of monoclonal antibodies with pancreatic tumors; type: binding, human; parameters: key to Immunohistochemical reactivity: −: Negative; +: 5–20% of tissue is stained; ++: 21–50% of tissue is stained; +++: >50% of tissue is stained
Text: as §1, §2

[8] = system: Neoplastic Tissues; test: Immunoperoxidase staining of neoplastic tissues with MAb PAM4; type: binding, human
Text: as §1

With `CC(=O)N[C@@H](Cc1ccccc1)C(=O)N[C@@H](CCCCNC(=O)CN(CCN(CCN(CC(=O)O)CC(=O)O)CC(=O)O)CC(=O)O)C(=O)N[C@@H](Cc1ccc(O)cc1)C(=O)N[C@@H](CCCCNC(=O)CN(CCN(CCN(CC(=O)O)CC(=O)O)CC(=O)O)CC(=O)O)C(N)=O` [^111In-IMP156, metal not drawn] (Ac-FK(DTPA)YK(DTPA)-NH2; N-terminus and C-terminus assumed) the “Tumor: Non-Tumor Tissue Ratio, Mean” value ([1]; Blood) was 36.47, the “Tumor: Non-Tumor Tissue Ratio, Mean” value ([1]; Bone) was 123.24 and the “Tumor: Non-Tumor Tissue Ratio, Mean” value ([1]; Kidney) was 7.79. For the same molecule, the “Tumor: Non-Tumor Tissue Ratio, Mean” value ([1]; Liver) was 36.07, the “Tumor: Non-Tumor Tissue Ratio, Mean” value ([1]; Lung) was 44.55 and the “Tumor: Non-Tumor Tissue Ratio, Mean” value ([1]; Pancreas) was 155.55. The “Tumor: Non-Tumor Tissue Ratio, Mean” value ([1]; Spleen) was 33.40, the “Tumor: Non-Tumor Tissue Ratio, Mean” value ([1]; Tumor) was 1.00 and the “Tumor: Non-Tumor Tissue Ratio, Mean” value ([1]; W. Bone) was 378.00.

With `CC(=O)N[C@@H](CCCCNC(=O)CN(CCN(CCN(CC(=O)O)CC(=O)O)CC(=O)O)CC(=O)O)C(=O)N[C@@H](Cc1ccc(O)cc1)C(=O)N[C@@H](CCCCNC(=O)CN(CCN(CCN(CC(=O)O)CC(=O)O)CC(=O)O)CC(=O)O)C(=O)N[C@@H](CCCCNC(=O)[C@H](CS)NC(=O)C=NNC(N)=S)C(N)=O` [^99mTc-IMP192, metal not drawn] (Ac-K(DTPA)YK(DTPA)K([Cys-X1])-NH2; N-terminus and C-terminus assumed) the “Tumor: Non-Tumor Tissue Ratio, Mean” value ([1]; Blood) was 9.93, the “Tumor: Non-Tumor Tissue Ratio, Mean” value ([1]; Kidney) was 8.13 and the “Tumor: Non-Tumor Tissue Ratio, Mean” value ([1]; Liver) was 16.66. The “Tumor: Non-Tumor Tissue Ratio, Mean” value ([1]; Lung) was 15.75, the “Tumor: Non-Tumor Tissue Ratio, Mean” value ([1]; Pancreas) was 73.29 and the “Tumor: Non-Tumor Tissue Ratio, Mean” value ([1]; Spleen) was 14.62. The “Tumor: Non-Tumor Tissue Ratio, Mean” value ([1]; Tumor) was 1.00.

B1: PAM4: murine MUC1 monoclonal antibody developed with pancreatic cancer mucin from the xenografted RIP-1 human pancreatic carcinoma as immunogen (antibody, V domains shown)
VL: DIVMTQSPAIMSASPGEKVTMTCSASSSVSSSYLYWYQQKPGSSPKLWIYSTSNLASGVPARFSGSGSGTSYSLTISSMEAEDAASYFCHQWNRYPYTFGGGTKLEIK
VH: EVQLQESGPELVKPGASVKMSCKASGYTFPSYVLHWVKQKPGQGLEWIGYINPYNDGTQYNEKFKGKATLTSDKSSSTAYMELSRLTSEDSAVYYCARGFGGSYGFAYWGQGTLITVSA
For B1, the targeting of lesions [2] was “a majority of the lesions were targeted”, the “uptake in normal tissues” value [2] was “no indication of uptake in normal tissues” and the “Staining Reaction” value ([3]; Colon) was “+ goblet cells”. The “Staining Reaction” value ([3]; Duodenum) was “+ goblet cells”, the “Staining Reaction” value ([3]; Ileum) was “+ goblet cells” and the “Staining Reaction” value ([3]; Jejunum) was “+ goblet cells”. The “Staining Reaction” value ([3]; Stomach) was “+ mucus secreting cells”, the “PAM4 reactivity by EIA” value ([4]; Adrenal, mean from two autopsy specimens) was 1.3 ug/g tissues and the “PAM4 reactivity by EIA” value ([4]; Bladder, mean from two autopsy specimens) was 4.9 ug/g tissues. The “PAM4 reactivity by EIA” value ([4]; CaPan1 Pancreatic Tumor) was 569 ug/g tissues, the “PAM4 reactivity by EIA” value ([4]; Colon, mean from two autopsy specimens) was 74.5 ug/g tissues and the “PAM4 reactivity by EIA” value ([4]; Duodenum, mean from two autopsy specimens) was 44.7 ug/g tissues. The “PAM4 reactivity by EIA” value ([4]; Esophagus, mean from two autopsy specimens) was 8.1 ug/g tissues, the “PAM4 reactivity by EIA” value ([4]; Gallbladder, mean from two autopsy specimens) was 5.6 ug/g tissues and the “PAM4 reactivity by EIA” value ([4]; Heart, mean from two autopsy specimens) was 3.7 ug/g tissues. For the same molecule, the “PAM4 reactivity by EIA” value ([4]; Jejunum, mean from two autopsy specimens) was 60.6 ug/g tissues, the “PAM4 reactivity by EIA” value ([4]; Kidney, mean from two autopsy specimens) was 6.6 ug/g tissues and the “PAM4 reactivity by EIA” value ([4]; Liver, mean from two autopsy specimens) was 0.0 ug/g tissues. For the same molecule, the “PAM4 reactivity by EIA” value ([4]; Pancreas, mean from two autopsy specimens) was 6.4 ug/g tissues, the “PAM4 reactivity by EIA” value ([4]; Spleen, mean from two autopsy specimens) was 3.4 ug/g tissues and the “PAM4 reactivity by EIA” value ([4]; Stomach, mean from two autopsy specimens) was 61.3 ug/g tissues. The “PAM4 reactivity by EIA” value ([4]; Testes, mean from two autopsy specimens) was 3.9 ug/g tissues, the “PAM4 reactivity by EIA” value ([4]; Thyroid, mean from two autopsy specimens) was 3.5 ug/g tissues and the “PAM4 reactivity by EIA” value ([4]; Ureter, mean from two autopsy specimens) was 2.6 ug/g tissues. For the same molecule, the “concentration of radiolabeled PAM4 within the CaPan1 tumor on increasing protein dose” value [5] was “more than doubled”, the “dose to the tumor, fold higher than MN14” value [5] was 3.2 fold and the splenic uptake [5] was 3.1-7.5 % ID/g. For the same molecule, the “tumor:blood ratio” value [5] was 12.7±2.3, the “reactivity with chronic pancreatitis specimens” value [6] was “only weakly reactive with three out of twelve” and the “Immunohistochemical reactivity, TOTAL (positive/examined)” value ([7]; all pancreatic tumors) was 21/25. The Immunohistochemical reactivity ([7]; pancreatic tumor 1, differentiation W) was “+++ (+++: >50% of tissue is stained)”, the Immunohistochemical reactivity ([7]; pancreatic tumor 2, differentiation M) was “++ (++: 21–50% of tissue is stained)” and the Immunohistochemical reactivity ([7]; pancreatic tumor 3, differentiation M) was “+ (+: 5–20% of tissue is stained)”. The Immunohistochemical reactivity ([7]; pancreatic tumor 4, differentiation M) was “+++ (+++: >50% of tissue is stained)”, the Immunohistochemical reactivity ([7]; pancreatic tumor 5, differentiation M) was “++ (++: 21–50% of tissue is stained)” and the Immunohistochemical reactivity ([7]; pancreatic tumor 6, differentiation M) was “+ (+: 5–20% of tissue is stained)”. For the same molecule, the Immunohistochemical reactivity ([7]; pancreatic tumor 7, differentiation M, metastatic tissue) was “+++ (+++: >50% of tissue is stained)”, the Immunohistochemical reactivity ([7]; pancreatic tumor 8, differentiation M) was “+ (+: 5–20% of tissue is stained)” and the Immunohistochemical reactivity ([7]; pancreatic tumor 9, differentiation M) was “++ (++: 21–50% of tissue is stained)”. For the same molecule, the Immunohistochemical reactivity ([7]; pancreatic tumor 10, differentiation M, metastatic tissue) was “++ (++: 21–50% of tissue is stained)”, the Immunohistochemical reactivity ([7]; pancreatic tumor 11, differentiation M) was “++ (++: 21–50% of tissue is stained)” and the Immunohistochemical reactivity ([7]; pancreatic tumor 12, differentiation M) was “++ (++: 21–50% of tissue is stained)”. For the same molecule, the Immunohistochemical reactivity ([7]; pancreatic tumor 13, differentiation M) was “+ (+: 5–20% of tissue is stained)”, the Immunohistochemical reactivity ([7]; pancreatic tumor 14, differentiation M) was “++ (++: 21–50% of tissue is stained)” and the Immunohistochemical reactivity ([7]; pancreatic tumor 15, differentiation M) was “+++ (+++: >50% of tissue is stained)”. For the same molecule, the Immunohistochemical reactivity ([7]; pancreatic tumor 16, differentiation M) was “+ (+: 5–20% of tissue is stained)”, the Immunohistochemical reactivity ([7]; pancreatic tumor 17, differentiation M) was “−” and the Immunohistochemical reactivity ([7]; pancreatic tumor 18, differentiation M) was “++ (++: 21–50% of tissue is stained)”. For the same molecule, the Immunohistochemical reactivity ([7]; pancreatic tumor 19, differentiation M) was “+++ (+++: >50% of tissue is stained)”, the Immunohistochemical reactivity ([7]; pancreatic tumor 20, differentiation M) was “+ (+: 5–20% of tissue is stained)” and the Immunohistochemical reactivity ([7]; pancreatic tumor 21, differentiation M) was “+++ (+++: >50% of tissue is stained)”. For the same molecule, the Immunohistochemical reactivity ([7]; pancreatic tumor 22, differentiation P) was “+ (+: 5–20% of tissue is stained)”, the Immunohistochemical reactivity ([7]; pancreatic tumor 23, differentiation P) was “−” and the Immunohistochemical reactivity ([7]; pancreatic tumor 24, differentiation P) was “−”. The Immunohistochemical reactivity ([7]; pancreatic tumor 25, differentiation P) was “−”, the tumors positive ([7]; poorly differentiated pancreatic tumors) was “one out of four” and the pancreatic cancers reactive ([7]; twenty one out of twenty five pancreatic cancers) was 85%. The tumors positive ([7]; well and moderately differentiated pancreatic tumors) was “twenty out of twenty one”, the Positive/Total ([8]; Breast neoplastic tissue) was 0/30 and the Positive/Total ([8]; Colon neoplastic tissue) was 10/26. The Positive/Total ([8]; Kidney neoplastic tissue) was 0/4, the Positive/Total ([8]; Liver neoplastic tissue) was 0/10 and the Positive/Total ([8]; Lung neoplastic tissue) was 1/15. The Positive/Total ([8]; Ovarian neoplastic tissue) was 0/10, the Positive/Total ([8]; Pancreas neoplastic tissue) was 21/25 and the Positive/Total ([8]; Prostate neoplastic tissue) was 0/4. For the same molecule, the Positive/Total ([8]; Stomach neoplastic tissue) was 1/5 and the “specimens reactive with PAM4 by immunohistochemistry” value ([8]; colorectal cancer specimens) was 40%.
